Source: paper PMC12363175 (2025)

B1: Chinese hamster ACE2 ectodomain fused with mFc (Fc fusion)
chain: QSIIEEQAKTFLDKFNQEAEDLSYQSALASWNYNTNITEENAQKMNEAAAKWSAFYEEQSKLAKNYSLQEVQNLIIKRQLQALQQSGSSALSADKNKQLNTILNTMSTIYSTGKVCNPKNPQECLLLEPGLDDIMATSTDYNERLWAWEGWRAEVGKQLRPLYEEYVVLKNEMARANNYKDYGDYWRGDYEAEGADGYNYNGNQLIEDVERTFKEIKPLYEQLHAYVRTKLMDTYPSFISPTGCLPAHLLGDMWGRFWTNLYPLTVPFGQKPNIDVTDAMVNQGWDAERIFKEAEKFFVSVGLPHMTQGFWGNSMLTDPGDDRKVVCHPTAWDLGKGDFRIKMCTKVTMDNFLTAHHEMGHIQYDMAYATQPFLLRNGANEGFHEAVGEIMSLSAATPKHLKSIGLLPSNFHEDNETEINFLLKQALTIVGTLPFTYMLEKWRWMVFKGDIPKEKWMEKWWEMKREIVGVVEPLPHDETYCDPAALFHVSNDYSFIRYYTRTIYQFQFQEALCQAAKHDGPLHKCDISNSTEAGQKLLNMLRLGKSEPWTLALENVVGARNMDVRPLLNYFEPLSVWLKEQNKNSFVGWNTDWSPYADQSIKVRISLKSALGENAYEWNDNEMYLFRATVAYAMRVYFAKNKTQTVLFGVEDIRVSDLKPRVSFNFFVTSPQNVSDIIPRNEVEEAVRFSRGRINDVFGLDDNSLEFLGINPTLAPPYQPPVT
B2: horse ACE2 ectodomain fused with mFc (Fc fusion)
chain: QSTTEDLAKTFLEKFNSEAEELSHQSSLASWSYNTNITDENVQKMNEAGARWSAFYEEQCKLAKTYPLEEIQNLTVKRQLQALQQSGSSVLSADKSKRLNEILNTMSTIYSTGKVCNPSNPQECLLLEPGLDAIMENSKDYNQRLWAWEGWRSEVGKQLRPLYEEYVVLKNEMARANNYEDYGDYWRGDYEAEGPSGYDYSRDQLIEDVERTFAEIKPLYEHLHAYVRAKLMDTYPSHINPTGCLPAHLLGDMWGRFWTNLYSLTVPFGQKPNIDVTDAMVDQSWDAKRIFEEAEKFFVSVGLPNMTQGFWENSMLTEPGDGRKVVCHPTAWDLGKGDFRIKMCTKVTMDDFLTAHHEMGHIQYDMAYAVQPYLLRNGANEGFHEAVGEIMSLSAATPNHLKAIGLLPPDFYEDSETEINFLLKQALTIVGTLPFTYMLEKWRWMVFKGEIPKEEWMKKWWEMKREIVGVVEPVPHDETYCDPAALFHVANDYSFIRYYTRTIYQFQFQEALCQTAKHEGPLHKCDISNSTEAGQKLLQMLSLGKSEPWTLALERIVGVKNMDVRPLLNYFEPLFTWLKDQNKNSFVGWSTNWSPYADQSIKVRISLKSALGEKSYEWNDNEMYLFQSSVAYAMRVYFLKAKNQTILFGEEDVWVSDLKPRISFNFFVTSPKNASDIIPRTDVEEAIRMSRSRINDAFRLDDNTLEFLGIQPTLGPPYQPPVT
B3: raccoon dog ACE2 ectodomain fused with mFc (Fc fusion)
chain: QSTEDLVNTFLEKFNYEAEELSYQSSLASWNYNTNITDENLQKMNNAGAKWSAFYEEQSKLAKTYPLEEIQDSTVKRQLRALQHSGSSVLSADKNQRLNTILNSMSTIYSTGKACNPSNPQECLLLEPGLDDIMENSKDYNERLWAWEGWRSEVGKQLRPLYEEYVALKNEMARANNYEDYGDYWRGDYEEEWENGYNYSRNQLIDDVEHTFTQIMPLYQHLHAYVRTKLMDTYPSYISPTGCLPAHLLGDMWGRFWTNLYPLTVPFGQKPNIDVTNAMVNQSWDARKIFKEAEKFFVSVGLPNMTQGFWENSMLTEPSDSWKVVCHPTAWDLGRGDFRIKMCTKVTMDDFLTAHHEMGHIQYDMAYAAQPFLLRNGANEGFHEAVGEIMSLSAATPNHLKNIGLLPPSFFEDSETEINFLLKQALTIVGTLPFTYMLEKWRWMVFKGEIPKDQWMKTWWEMKRNIVGVVEPVPHDETYCDPASLFHVANDYSFIRYYTRTIYQFQFQEALCQIAKHEGPLHKCDISNSSEAGQKLLEMLKLGKSKPWTYALEIVVGAKNMDVRPLLNYFEPLFTWLKEQNRNSFVGWNTDWSPYADQSIKVRISLKSALGEKAYEWNNNEMYLFRSSIAYAMRQYFSEVKNQTIPFVEDNVWVSDLKPRISFNFFVTSPGNVSDIIPRTEVEEAIRMYRSRINDVFRLDDNSLEFLGIQPTLGPPYEPPVT
B4: fox ACE2 ectodomain fused with mFc (Fc fusion)
chain: QSTEDLVNTFLEKFNYEAEELSYQSSLASWDYNTNISDENVQKMNNAGAKWSAFYEEQSKLAKTYPLEEIQDSTVKRQLRALQHSGSSVLSADKNQRLNTILNSMSTIYSTGKACNPSNPQECLLLEPGLDDIMENSKDYNERLWAWEGWRSEVGKQLRPLYEEYVALKNEMARANNYEDYGDYWRGDYEEEWENGYNYSRNQLIDDVEHTFTQIMPLYQHLHAYVRTKLMDTYPSYISPTGCLPAHLLGDMWGRFWTNLYPLTVPFGQKPNIDVTNAMVNQSWDARKIFKEAEKFFVSVGLPNMTQGFWENSMLTEPSDSRKVVCHPTAWDLGKGDFRIKMCTKVTMDDFLTAHHEMGHIQYDMAYAAQPFLLRNGANEGFHEAVGEIMSLSAATPNHLKNIGLLPPSFFEDSETEINFLLKQALTIVGTLPFTYMLEKWRWMVFKGEIPKDQWMKTWWEMKRNIVGVVEPVPHDETYCDPASLFHVANDYSFIRYYTRTIYQFQFQEALCQIAKHEGPLHKCDISNSSEAGQKLLEMLKLGKSKPWTYALEIVVGAKNMDVRPLLNYFEPLFTWLKEQNRNSFVGWNTDWSPYADQSIKVRISLKSALGEKAYEWNNNEMYLFRSSIAYAMRRYFSEVKKQTIPFVEDNVWVSDLKPRISFNFFVTSPGNVSDIIPRTEVEKAIRMYRGRINDVFRLDDNSLEFLGIQPTLGPPYEPPVT
B5: dog ACE2 ectodomain fused with mFc (Fc fusion)
chain: QSTEDLVKTFLEKFNYEAEELSYQSSLASWNYNINITDENVQKMNNAGAKWSAFYEEQSKLAKTYPLEEIQDSTVKRQLRALQHSGSSVLSADKNQRLNTILNSMSTIYSTGKACNPSNPQECLLLEPGLDDIMENSKDYNERLWAWEGWRSEVGKQLRPLYEEYVALKNEMARANNYEDYGDYWRGDYEEEWENGYNYSRNQLIDDVEHTFTQIMPLYQHLHAYVRTKLMDTYPSYISPTGCLPAHLLGDMWGRFWTNLYPLTVPFGQKPNIDVTNAMVNQSWDARKIFKEAEKFFVSVGLPNMTQEFWENSMLTEPSDSRKVVCHPTAWDLGKGDFRIKMCTKVTMDDFLTAHHEMGHIQYDMAYAAQPFLLRNGANEGFHEAVGEIMSLSAATPNHLKNIGLLPPSFFEDSETEINFLLKQALTIVGTLPFTYMLEKWRWMVFKGEIPKDQWMKTWWEMKRNIVGVVEPVPHDETYCDPASLFHVANDYSFIRYYTRTIYQFQFQEALCQIAKHEGPLHKCDISNSSEAGQKLLEMLKLGKSKPWTYALEIVVGAKNMDVRPLLNYFEPLFTWLKEQNRNSFVGWNTDWSPYADQSIKVRISLKSALGEKAYEWNNNEMYLFRSSIAYAMRQYFSEVKNQTIPFVEDNVWVSDLKPRISFNFFVTSPGNVSDIIPRTEVEEAIRMYRSRINDVFRLDDNSLEFLGIQPTLGPPYEPPVT
B6: pig ACE2 ectodomain fused with mFc (Fc fusion)
chain: QSTTEELAKTFLEKFNLEAEDLAYQSSLASWNYNTNITDENIQKMNDARAKWSAFYEEQSRIAKTYPLDEIQTLILKRQLQALQQSGTSGLSADKSKRLNTILNTMSTIYSSGKVLDPNNPQECLVLEPGLDEIMENSKDYSRRLWAWESWRAEVGKQLRPLYEEYVVLENEMARANNYEDYGDYWRGDYEVTGTGDYDYSRNQLMEDVERTFAEIKPLYEHLHAYVRAKLMDAYPSRISPTGCLPAHLLGDMWGRFWTNLYPLTVPFGEKPSIDVTEAMVNQSWDAIRIFEEAEKFFVSIGLPNMTQGFWNNSMLTEPGDGRKVVCHPTAWDLGKGDFRIKMCTKVTMDDFLTAHHEMGHIQYDMAYAIQPYLLRNGANEGFHEAVGEIMSLSAATPHYLKALGLLPPDFYEDSETEINFLLKQALTIVGTLPFTYMLEKWRWMVFKGEIPKEQWMQKWWEMKREIVGVVEPLPHDETYCDPACLFHVAEDYSFIRYYTRTIYQFQFHEALCRTAKHEGPLYKCDISNSTEAGQKLLQMLSLGKSEPWTLALENIVGVKTMDVKPLLSYFEPLLTWLKAQNGNSSVGWNTDWTPYADQSIKVRISLKSALGKEAYEWNDNEMYLFRSSIAYAMRNYFSSAKNETIPFGAEDVWVSDLKPRISFNFFVTSPANMSDIIPRSDVEKAISMSRSRINDAFRLDDNTLEFLGIQPTLGPPDEPP
B7: goat ACE2 ectodomain fused with mFc (Fc fusion)
chain: QSTTEEQAKTFLEKFNHEAEDLSYQSSLASWNYNTNITDENVQKMNEARAKWSAFYEEQSRMARTYSLEEIQNLTLKRQLKALQHSGTSVLSAEKSKRLNTILNKMSTIYSTGKVLDPNTQECLALEPGLDDIMENSRDYNRRLWAWEGWRAEVGKQLRPLYEEYVVLENEMARANNYEDYGDYWRGDYEVTGAGDYDYSRDQLMKDVERTFAEIKPLYEQLHAYVRAKLMNTYPSYISPTGCLPAHLLGDMWGRFWTNLYSLTVPFEHKPSIDVTEKMKNQSWDAERIFKEAEKFFVSIGLPYMTQGFWNNSMLTEPGDGRKVVCHPTAWDLGKGDFRIKMCTKVTMDDFLTAHHEMGHIQYDMAYATQPYLLRNGANEGFHEAVGEIMSLSAATPHYLKALGLLAPDFYEDNETEINFLLKQALTIVGTLPFTYMLEKWRWMVFKGEIPKQQWMEKWWEMKREIVGVVEPLPHDETYCDPACLFHVAEDYSFIRYYTRTIYQFQFHEALCKTAKHEGALFKCDISNSTEAGQRLLQMLRLGKSEPWTLALENIVGIKTMDVKPLLNYFEPLFTWLKEQNRNSFVGWSTEWTPYSDQSIKVRISLKSALGENAYEWNDNEMYLFRSSVAYAMRKYFLEDRNETIPFGEENVWVSDKKPRISFKFFVTSPNNVSDIIPRTEVENAIRLCRDRINDAFQLDDNSLEFLGIQPTLRPPYEPP
B8: rabbit ACE2 ectodomain fused with mFc (Fc fusion)
chain: QSTIEELAKTFLEKFNQEAEDLSYQSALASWDYNTNITEENVQKMNDAEAKWSAFYEEQSKLAKTYPSQEVQNLTVKRQLQALQQSGSSALSADKSKQLNTILSTMSTIYSTGKVCNQSNPQECFLLEPGLDEIMAKSTDYNERLWAWEGWRSVVGKQLRPLYEEYVVLKNEMARANNYEDYGDYWRADYEAEGADGYDYSRSQLIDDVERTFSEIKPLYEQLHAFVRTKLMDAYPSRISPTGCLPAHLLGDMWGRFWTNLYSLTVPFGQKPNIDVTDTMVNQGWDAERIFKEAEKFFVSVGLPSMTQGFWENSMLTEPGDGRKVVCHPTAWDLGKGDFRIKMCTKVTMDNFLTAHHEMGHIQYDMAYATQPFLLRNGANEGFHEAVGEIMSLSAATPEHLKSIGLLPYDFHEDNETEINFLLKQALTIVGTLPFTYMLEKWRWMVFKGEIPKEQWMQKWWEMKREIVGVVEPMPHDETYCDPAALFHVANDYSFIRYYTRTIYQFQFQEALCQAAQHEGPLHKCDISNSTEAGQKLLNMLRLGRSEPWTLALENVVGAKNMDVRPLLNYFEPLFTWLKEQNRNSFVGWSTEWTPYADQSIKVRISLKTALGDQAYEWNDSEMYLFRSSVAYAMRKYFSEVKNQTILFGEEDVRVSDLKPRISFNFFVTAPNNVNDIIPRNEVEEAISMSRSRINDIFRLDDNSLEFVGIQPTLEPPYESPVP

Each binder was assayed against SARS-CoV-2 PT-RBD (SARS-CoV-2 prototype, UniProt P0DTC2) (assay: SPR).
In the case of B1, the Kd is reported as 0.0694 µM. B2 gave a Kd of 0.0644 µM. Binder B3 has a Kd of 0.424 µM. For B4, the Kd was 0.0592 µM. For B5, the Kd was 0.299 µM. B6 showed a Kd of 0.175 µM. With B7 the Kd was 0.451 µM. With B8 the Kd was 0.0748 µM.
